From paper PMC3836952

Legend:
His163 = His163 (UniProt position 288, GKQLNHGVLLV); assay: kinetics; conditions: 35 °C, constant ionic strength (four-component buffer; value not stated), 25 mM glycine, 25 mM acetic acid, 25 mM Mes, 75 mM Tris, 5 mM DTT, pH adjusted with HCl or NaOH
Cys25 = Cys25 (UniProt position 150, GACGSCWAFSA); assay: kinetics; conditions: 35 °C, constant ionic strength (four-component buffer; value not stated), 25 mM glycine, 25 mM acetic acid, 25 mM Mes, 75 mM Tris, 5 mM DTT, pH adjusted with HCl or NaOH
[1] = Enzyme-substrate complex (saturating Z-FR-MCA) in the presence of 40 µM heparin (10 kDa bovine lung heparin)
[2] = Enzyme-substrate complex (saturating Z-FR-MCA), no heparin (control)

Cysteine protease B isoform CPB2.8 lacking the C-terminal extension (CPB2.8ΔCTE, rCPB2.8), cathepsin L-like (Leishmania mexicana; none (C-terminal extension deleted; residue range not stated))
pKa (His163; [1]): 8.8±0.1
pKa (His163; [2]): 7.8±0.1
pKa (Cys25; [1]): 4.6± 0.1
pKa (Cys25; [2]): 5.1±0.1
